B1: α1A-adrenoceptor (receptor, human (endogenous in hVSMCs), UniProt P35348 1-466, looked up)
chain: MVFLSGNASDSSNCTQPPAPVNISKAILLGVILGGLILFGVLGNILVILSVACHRHLHSVTHYYIVNLAVADLLLTSTVLPFSAIFEVLGYWAFGRVFCNIWAAVDVLCCTASIMGLCIISIDRYIGVSYPLRYPTIVTQRRGLMALLCVWALSLVISIGPLFGWRQPAPEDETICQINEEPGYVLFSALGSFYLPLAIILVMYCRVYVVAKRESRGLKSGLKTDKSDSEQVTLRIHRKNAPAGGSGMASAKTKTHFSVRLLKFSREKKAAKTLGIVVGCFVLCWLPFFLVMPIGSFFPDFKPSETVFKIVFWLGYLNSCINPIIYPCSSQEFKKAFQNVLRIQCLCRKQSSKHALGYTLHPPSQAVEGQHKDMVRIPVGSRETFYRISKTDGVCEWKFFSSMPRGSARITVSKDQSSCTTARVRSKSFLQVCCCVGPSTPSLDKNHQVPTIKVHTISLSENGEEV
notes: α1A-adrenoceptor, endogenous in human vascular smooth muscle cells; also called α1A-AR; source: endogenous, hVSMCs (primary aortic smooth muscle cells, ATCC PCS-100-012), fixed cells
B2: α1B-adrenoceptor (receptor, human (endogenous in hVSMCs), UniProt P35368 1-520, looked up)
chain: MNPDLDTGHNTSAPAHWGELKNANFTGPNQTSSNSTLPQLDITRAISVGLVLGAFILFAIVGNILVILSVACNRHLRTPTNYFIVNLAMADLLLSFTVLPFSAALEVLGYWVLGRIFCDIWAAVDVLCCTASILSLCAISIDRYIGVRYSLQYPTLVTRRKAILALLSVWVLSTVISIGPLLGWKEPAPNDDKECGVTEEPFYALFSSLGSFYIPLAVILVMYCRVYIVAKRTTKNLEAGVMKEMSNSKELTLRIHSKNFHEDTLSSTKAKGHNPRSSIAVKLFKFSREKKAAKTLGIVVGMFILCWLPFFIALPLGSLFSTLKPPDAVFKVVFWLGYFNSCLNPIIYPCSSKEFKRAFVRILGCQCRGRGRRRRRRRRRLGGCAYTYRPWTRGGSLERSQSRKDSLDDSGSCLSGSQRTLPSASPSPGYLGRGAPPPVELCAFPEWKAPGALLSLPAPEPPGRRGRHDSGPLFTFKLLTEPESPGTDGGASNGGCEAAADVANGQPGFKSNMPLAPGQF
notes: α1B-adrenoceptor, endogenous in human vascular smooth muscle cells; also called α1B-AR; source: endogenous, hVSMCs (primary aortic smooth muscle cells, ATCC PCS-100-012), fixed cells

Tests used:
Assay in all cases: proximity ligation; Duolink II PLA on hVSMCs fixed with 4% paraformaldehyde; two primary antibodies from differing species (1:500, 37°C, 105 min); control: omission of one primary antibody; PLA signals per cell counted; cells untreated or incubated 72 h with non-targeting, CXCR4, ACKR3 or AVPR1A siRNA
Conditions in all cases: partners not purified
α1A-adrenoceptor = target: B1
α1B-adrenoceptor = target: B2
α1D-adrenoceptor = target: T1, α1D-adrenoceptor (human (endogenous in hVSMCs), UniProt P25100 1-572)
T1 construct: α1D-adrenoceptor, endogenous in human vascular smooth muscle cells; also called α1D-AR; source: endogenous, hVSMCs (primary aortic smooth muscle cells, ATCC PCS-100-012), fixed cells
T1 sequence (looked up): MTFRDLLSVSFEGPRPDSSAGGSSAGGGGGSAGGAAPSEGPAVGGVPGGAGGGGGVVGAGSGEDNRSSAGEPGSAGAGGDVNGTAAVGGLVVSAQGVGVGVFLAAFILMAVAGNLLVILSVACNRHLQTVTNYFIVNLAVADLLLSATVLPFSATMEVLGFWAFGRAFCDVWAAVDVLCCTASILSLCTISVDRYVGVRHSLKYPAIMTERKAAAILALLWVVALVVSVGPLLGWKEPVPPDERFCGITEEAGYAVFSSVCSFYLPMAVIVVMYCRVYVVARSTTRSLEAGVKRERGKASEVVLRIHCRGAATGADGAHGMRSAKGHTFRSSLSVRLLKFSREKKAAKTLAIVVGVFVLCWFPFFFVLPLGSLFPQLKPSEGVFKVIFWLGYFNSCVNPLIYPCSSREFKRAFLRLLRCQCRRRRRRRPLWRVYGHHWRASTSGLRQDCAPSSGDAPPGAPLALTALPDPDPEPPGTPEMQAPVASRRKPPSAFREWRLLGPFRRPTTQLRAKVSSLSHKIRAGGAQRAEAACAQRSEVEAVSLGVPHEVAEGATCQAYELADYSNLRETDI

Row | Binder | PLA signals after AVPR1A siRNA, % of NT siRNA (α1A-adrenoceptor) [%] | PLA signals after AVPR1A siRNA, % of NT siRNA (α1B-adrenoceptor) [%] | PLA signals after AVPR1A siRNA, % of NT siRNA (α1D-adrenoceptor) [%]
1 | chemokine (C-X-C motif) receptor 4 (receptor, human (endogenous in hVSMCs), UniProt P61073 1-352, looked up, chemokine (C-X-C motif) receptor 4 (CXCR4), endogenous in human vascular smooth muscle cells; also called CXCR4; source: endogenous, hVSMCs (primary aortic smooth muscle cells, ATCC PCS-100-012), fixed cells) MEGISIYTSDNYTEEMGSGDYDSMKEPCFREENANFNKIFLPTIYSIIFLTGIVGNGLVILVMGYQKKLRSMTDKYRLHLSVADLLFVITLPFWAVDAVANWYFGNFLCKAVHVIYTVNLYSSVLILAFISLDRYLAIVHATNSQRPRKLLAEKVVYVGVWIPALLLTIPDFIFANVSEADDRYICDRFYPNDLWVVVFQFQHIMVGLILPGIVILSCYCIIISKLSHSKGHQKRKALKTTVILILAFFACWLPYYIGISIDSFILLEIIKQGCEFENTVHKWISITEALAFFHCCLNPILYAFLGAKFKTSAQHALTSVSRGSSLKILSKGKRGGHSSVSTESESSSFHSS | 91 | 72 | 
2 | B1 |  | 101 | 
3 | B2 |  |  | 141
